Laboratory results: PMC3691600, “Conversion of fatty aldehydes into alk (a/e)nes by in vitro reconstituted cyanobacterial aldehyde-deformylating oxygenase with the cognate electron transfer system” (Biotechnology for Biofuels, 2013)

B1: FNR (SynPcc7942_0978) (Synechococcus elongatus PCC 7942 = FACHB-805) (protein)
chain: MLNASVAGGAATTTYGNRLFIYEVIGLRQAEGEPSDSSIRRSGSTFFKVPYSRMNQEMQRILRLGGKIVSIRPAEEAAANNGAAPLQAAAEEPAAAPTPAPAAKKHSAEDVPVNIYRPNKPFVGKVLSNEPLVQEGGIGVVQHLTFDISEGDLRYIEGQSIGIIPDGTDDKGKPHKLRLYSIASTRHGDHVDDKTVSLCVRQLQYQNEAGETINGVCSTFLCGLKPGDDVKITGPVGKEMLLPADTDANVIMMGTGTGIAPFRAYLWRMFKDNERAINSEYQFNGKAWLIFGIPTTANILYKEELEALQAQYPDNFRLTYAISREQKNEAGGRMYIQDRVAEHADEIWNLLKDEKTHVYICGLRGMEDGIDQAMTVAAAKEDVVWSDYQRTLKKAGRWHVETY
B2: ADO 1593 (Synechococcus elongatus PCC 7942 = FACHB-805) (protein)
chain: MPQLEASLELDFQSESYKDAYSRINAIVIEGEQEAFDNYNRLAEMLPDQRDELHKLAKMEQRHMKGFMACGKNLSVTPDMGFAQKFFERLHENFKAAAAEGKVVTCLLIQSLIIECFAIAAYNIYIPVADAFARKITEGVVRDEYLHRNFGEEWLKANFDASKAELEEANRQNLPLVWLMLNEVADDARELGMERESLVEDFMIAYGEALENIGFTTREIMRMSAYGLAAV
notes: apo-ADO reconstituted with ferrous iron

Assays:
purified protein = substrate: NC(=O)C1=CN([C@@H]2O[C@H](COP(=O)(O)OP(=O)(O)OC[C@H]3O[C@@H](n4cnc5c(N)ncnc54)[C@H](OP(=O)(O)O)[C@@H]3O)[C@@H](O)[C@H]2O)C=CC1; assay: purified protein; assay type: biochemical, Synechococcus elongatus; settings: 0.7 mM potassium ferricyanide, 50 mM Tris-HCl pH 8.0, 25°C
[1] = substrate: CCCCCCC=O; assay: GC headspace assay of n-hexane formation; assay type: biochemical, Synechococcus elongatus; settings: chemical reductants PMS/NADH, ferrous ammonium sulfate, HEPES pH 7.2, 100 mM KCl, 10% glycerol, 4% DMSO, 37°C (conditions of the kcat assay)

Protein | Km (purified protein) | kcat (purified protein) | kcat/Km (purified protein) | Km [1] | kcat [1]
B1 | 92.5 ± 7.6 µM | 227 ± 7 s⁻¹ | 2.5e+06 ± 300000 M⁻¹ s⁻¹ |  | 
B2 |  |  |  | 224 ± 40 µM | 0.002 ± 0.00033 s⁻¹
